# Target: T1, HLA-A*02:01 (human)
# T1 construct: the format of the assay is not described
# Assay: ELISA-based peptide-MHC binding assay (FIG. 5)
binder,measurement,value
KIQEILTQV [IGF2BP3-001 peptide KIQEILTQV (SEQ ID NO: 1)],binding result,binds
